Results on 9 molecules are retold here after patent US9206432B2, “Sulfonylurea-responsive repressor proteins” (priority 2008, dated 2015).

The subject of this data set is lacZ under control of the tetA promoter (PtetA) in E. coli KM3. Type of data set: cell-based. The following applies: for relative β-galactosidase activity, inducer atc / relative β-galactosidase activity, inducer Ci / relative β-galactosidase activity, inducer Cs / relative β-galactosidase activity, inducer Es / relative β-galactosidase activity, inducer Ms / relative β-galactosidase activity, inducer Ns / relative β-galactosidase activity, inducer Rs / relative β-galactosidase activity, inducer Sm / relative β-galactosidase activity, inducer Ts / relative β-galactosidase activity, inducer Tb: Table 6, reverse repressor hits; for relative β-galactosidase activity, inducer atc: anhydrotetracycline (0.4 μM); for relative β-galactosidase activity, inducer Ci: chlorimuron; for relative β-galactosidase activity, inducer Ci / relative β-galactosidase activity, inducer Cs / relative β-galactosidase activity, inducer Es / relative β-galactosidase activity, inducer Ms / relative β-galactosidase activity, inducer Ns / relative β-galactosidase activity, inducer Rs / relative β-galactosidase activity, inducer Sm / relative β-galactosidase activity, inducer Ts / relative β-galactosidase activity, inducer Tb: same plate assay format (20 ppm); for relative β-galactosidase activity, inducer Cs: chlorsulfuron; for relative β-galactosidase activity, inducer Es: ethametsulfuron; for relative β-galactosidase activity, inducer Ms: metsulfuron; for relative β-galactosidase activity, inducer Ns: nicosulfuron; for relative β-galactosidase activity, inducer Rs: rimsulfuron; for relative β-galactosidase activity, inducer Sm: sulfometuron; for relative β-galactosidase activity, inducer Ts: thifensulfuron; for relative β-galactosidase activity, inducer Tb: tribenuron.

B1: L1-41: library L1 hit with reverse repressor activity (SEQ ID NO: 1206-1213) (protein)
chain: MGSRLDKSKVINSALELLNEVGIEGLTTRKLAQKLGVEQPTLYWHVKNKRALLDALAIEMLDRNQTHFCPLEGESWQDFLRNNAKSWRCALLSHRDGAKVMLGTRNTEKQYETAENGLAFLCQQGFSLENALYACRAVWTFTLGCVLDDQETQVAKEERETPTSDSMPPLLRQAMELKDHQGAEPAFLFGLELIICGLEKQLKCESGS
modifications: rSuR L1-41
On to B1, for which the “relative β-galactosidase activity, inducer atc” value amounted to 4.21; the “relative β-galactosidase activity, inducer Ci” value was determined as 0.39; the “relative β-galactosidase activity, inducer Cs” value stood at 0.61; the “relative β-galactosidase activity, inducer Es” value came out at 0.18. Also, the “relative β-galactosidase activity, inducer Ms” value came out at 0.56; the “relative β-galactosidase activity, inducer Ns” value came to 2.75; the “relative β-galactosidase activity, inducer Rs” value came to 4.05; the “relative β-galactosidase activity, inducer Sm” value is reported as 0.67. For the same molecule, the “relative β-galactosidase activity, inducer Ts” value is reported as 1.46 and the “relative β-galactosidase activity, inducer Tb” value came out at 1.41.

B2: L1-39: library L1 hit with reverse repressor activity (SEQ ID NO: 1206-1213) (protein)
chain: MGSRLDKSKVINSALELLNEVGIEGLTTRKLAQKLGVEQPTLYWHVKNKRALLDALAIEMMDRHQTHFCPLEGESWQDFLRNTAKSYRCALLSHRDGAKVILGTRWTEKQYETRENVLAFLCQQGFSLENALYAWAAVGPFTLGCVLRDQERQVAKEERETPTTDSMPPLLRQALELMDHQGAEPAFLFGLELIICGLEKQLKCESGS
modifications: rSuR L1-39
For the molecule B2, the “relative β-galactosidase activity, inducer atc” value was 4.92; the “relative β-galactosidase activity, inducer Ci” value was determined as 0.49; the “relative β-galactosidase activity, inducer Cs” value is 0.89; the “relative β-galactosidase activity, inducer Es” value is listed as 0.60. Moreover, the “relative β-galactosidase activity, inducer Ms” value turned out to be 0.75; the “relative β-galactosidase activity, inducer Ns” value is on record as 3.03; the “relative β-galactosidase activity, inducer Rs” value is given as 4.72; the “relative β-galactosidase activity, inducer Sm” value came to 0.91. Moreover, the “relative β-galactosidase activity, inducer Ts” value was determined as 1.42 and the “relative β-galactosidase activity, inducer Tb” value worked out at 0.97.

B3: L1-21: library L1 hit with reverse repressor activity (SEQ ID NO: 1206-1213) (protein)
chain: MGSRLDKSKVINSALELLNEVGIEGLTTRKLAQKLGVEQPTLYWHVKNKRALLDALAIEMLDRHATHFCPLEGESWQDFLRNNAKSFRCALLSHRDGAKVCLGTAGTEKQYETLENCLAFLCQQGFSLENALYARSAVVCFTLGCVLFDQEMQVAKEERETPTTDSMPPLLRQAAELLDHQGAEPAFLFGLELIICGLEKQLKCESGS
modifications: rSuR L1-21
In the case of B3, the “relative β-galactosidase activity, inducer atc” value is given as 2.81; the “relative β-galactosidase activity, inducer Ci” value amounted to 0.07; the “relative β-galactosidase activity, inducer Cs” value was 0.89; the “relative β-galactosidase activity, inducer Es” value is listed as 0.61. For the same molecule, the “relative β-galactosidase activity, inducer Ms” value was determined as 0.89; the “relative β-galactosidase activity, inducer Ns” value came to 2.74; the “relative β-galactosidase activity, inducer Rs” value is 2.31; the “relative β-galactosidase activity, inducer Sm” value came to 2.39. In addition, the “relative β-galactosidase activity, inducer Ts” value came out at 0.79 and the “relative β-galactosidase activity, inducer Tb” value was found to be 2.13.

B4: L1-34: library L1 hit with reverse repressor activity (SEQ ID NO: 1206-1213) (protein)
chain: MGSRLDKSKVINSALELLNEVGIEGLTTRKLAQKLGVEQPTLYWHVKNKRALLDALAIEMADRHNTHFCPLEGESWQDFLRNAARSMRCALLSHRDGAKVYLGTARTEKQYETTENVLAFLCQQGFSLENALYAVRAVPRFTLGCVLLDQERQVAKEERETPTTDSMPPLLRQARELTDHQGAEPAFLFGLELIICGLEKQLKCESGS
modifications: rSuR L1-34
Regarding B4, the “relative β-galactosidase activity, inducer atc” value amounted to 3.68; the “relative β-galactosidase activity, inducer Ci” value is 0.43; the “relative β-galactosidase activity, inducer Cs” value is 0.85; the “relative β-galactosidase activity, inducer Es” value was 1.33. Also, the “relative β-galactosidase activity, inducer Ms” value was determined as 1.47; the “relative β-galactosidase activity, inducer Ns” value was determined as 2.91; the “relative β-galactosidase activity, inducer Rs” value was determined as 2.30; the “relative β-galactosidase activity, inducer Sm” value amounted to 2.00. Besides, the “relative β-galactosidase activity, inducer Ts” value is reported as 2.97 and the “relative β-galactosidase activity, inducer Tb” value is on record as 2.26.

B5: L1-18: library L1 hit with reverse repressor activity (SEQ ID NO: 1206-1213) (protein)
chain: MGSRLDKSKVINSALELLNEVGIEGLTTRKLAQKLGVEQPTLYWHVKNKRALLDALAIEMLDRHLTHFCPLEGESWQDFLRNNAKSMRCALLSHRDGAKVWLGTGFTEKQYETKENRLAFLCQQGFSLENALYAIRAVSRFTLGCVLQDQEPQVAKEERETPTTDSMPPLLRQAVELFDHQGAEPAFLFGLELIICGLEKQLKCESES
modifications: rSuR L1-18
Take B5: the “relative β-galactosidase activity, inducer atc” value was determined as 2.35; the “relative β-galactosidase activity, inducer Ci” value is on record as 0.36; the “relative β-galactosidase activity, inducer Cs” value was 1.22; the “relative β-galactosidase activity, inducer Es” value worked out at 0.37. The “relative β-galactosidase activity, inducer Ms” value worked out at 0.79; the “relative β-galactosidase activity, inducer Ns” value was found to be 1.44; the “relative β-galactosidase activity, inducer Rs” value is reported as 2.55; the “relative β-galactosidase activity, inducer Sm” value came to 0.94. For the same molecule, the “relative β-galactosidase activity, inducer Ts” value was determined as 1.13 and the “relative β-galactosidase activity, inducer Tb” value was determined as 1.65.

B6: L1-25: library L1 hit with reverse repressor activity (SEQ ID NO: 1206-1213) (protein)
chain: MGSRLDKSKVINSALELLNEVGIEGLTTRKLAQKLGVEQPTLYWHVKNKRALLDALAIEMLDRHATHFCPLEGESWQDFLRNTAKSMRCALLSHRDGAKVLLGTATTEKQYETLENLLAFLYQQGFSLENALYAWQAVWRFTLGCVLIDQETQVAKEERETPTTDSMPPLLRQAVELKDHQGAEPAFLFGLELIICGLEKQLKCETGS
modifications: rSuR L1-25
Consider B6, for which the “relative β-galactosidase activity, inducer atc” value came out at 1.22; the “relative β-galactosidase activity, inducer Ci” value is 0.11; the “relative β-galactosidase activity, inducer Cs” value was 0.28; the “relative β-galactosidase activity, inducer Es” value was 0.13. For the same molecule, the “relative β-galactosidase activity, inducer Ms” value is recorded as 0.32; the “relative β-galactosidase activity, inducer Ns” value came out at 1.21; the “relative β-galactosidase activity, inducer Rs” value is given as 1.08; the “relative β-galactosidase activity, inducer Sm” value is on record as 0.63. For the same molecule, the “relative β-galactosidase activity, inducer Ts” value turned out to be 0.64 and the “relative β-galactosidase activity, inducer Tb” value is given as 1.72.

B7: L1-36: library L1 hit with reverse repressor activity (SEQ ID NO: 1206-1213) (protein)
chain: MGSRLDKSKVINSALELLNEVGIEGLTTRKLAQKLGVEQPTLYWHVKNKRALLDALAIEMADRHHTHFCPLEGESWQDFLRNAAKSMRCALLSHRDGAKVRLGTAWTEKQYETHENVLAFLCQQGFSLENALYALKAVSGFTLGCVLKDQEMQVAKEERETPTTDSMPPLLRQATELVDHQGAEPAFLFGLELIICGLEKQLKCESGS
modifications: rSuR L1-36
Regarding B7, the “relative β-galactosidase activity, inducer atc” value turned out to be 1.70; the “relative β-galactosidase activity, inducer Ci” value came to 0.21; the “relative β-galactosidase activity, inducer Cs” value is 0.24; the “relative β-galactosidase activity, inducer Es” value was 0.20. Moreover, the “relative β-galactosidase activity, inducer Ms” value came to 0.38; the “relative β-galactosidase activity, inducer Ns” value amounted to 1.81; the “relative β-galactosidase activity, inducer Rs” value is recorded as 1.84; the “relative β-galactosidase activity, inducer Sm” value was 0.50. Further, the “relative β-galactosidase activity, inducer Ts” value is 0.48 and the “relative β-galactosidase activity, inducer Tb” value is 0.57.

B8: L6-1B03 (protein)
chain: MGSRLDKSKVINSALELLNEVGIEGLTTRKLAQKLGVEQPTLYWHVKNKRALLDALAIEMMDRHATHICPLEGESWQDFLRNNAKSMRCALLSHRDGAKVCLGTRWTEQQYEAAENMLAFLCQQGFSLENALYAVSAVRVFTLGCVLFDQESQVAKEERETPTTASMPPLLRQAWELKDHQGAEPAFLFGLELIICGLEKQLKCESGS
modifications: Sulfonylurea responsive repressor L6-1B03
Consider B8, for which the “0.2 ppm 48 hr/Control 84 hr” value came to 4.6. The “0.2 ppm 48 hr (colony color intensity, induction by chlorsulfuron)” value (0.2 ppm chlorsulfuron as inducer, M9 assay plates, 48 hr at 30° C., ImageJ colony color intensity) is recorded as 30.0. For the same molecule, for the setting “no inducer, M9 assay plates, 84 hr at 30° C., ImageJ colony color intensity”, the “Control 84 hr (background activity, no inducer)” value was determined as 6.6.

B9: L1-33: library L1 hit with reverse repressor activity (SEQ ID NO: 1206-1213) (protein)
chain: MGSRLDKSKVINSALELLNEVGIEGLTTRKLAQKLGVEQPTLYWHVKNKRALLDALAIEMLDRHATHFCPLEGESWQDFLRNNAKSMRCALLSHRDGAKVQLGTAATEKQYETLENKLAFLCQQGFSLENALYAHSAVTQFTLGCVLRDQEGQVAKEERETPTTDSMPPLLRQARELRDHQGAEPAFLFGLELIICGLEKQLKCESGS
modifications: rSuR L1-33
As to B9, the “relative β-galactosidase activity, inducer atc” value was found to be 8.25; the “relative β-galactosidase activity, inducer Ci” value was 0.76; the “relative β-galactosidase activity, inducer Cs” value is 3.74; the “relative β-galactosidase activity, inducer Es” value came out at 2.11. The “relative β-galactosidase activity, inducer Ms” value is reported as 4.29; the “relative β-galactosidase activity, inducer Ns” value was 5.34; the “relative β-galactosidase activity, inducer Rs” value was 10.32; the “relative β-galactosidase activity, inducer Sm” value is reported as 5.02. The “relative β-galactosidase activity, inducer Ts” value is listed as 5.51 and the “relative β-galactosidase activity, inducer Tb” value is on record as 4.71.
